Results from patent US20090281024A1 (RAPTOR PHARMACEUTICALS, published 2009).
Numbering of substitutions follows the chain as printed. Blank lines part the entries; values can stand above or below the binder they belong to.

Columns and labels:
LRP1 CR3-5 [1] = biological target: T1, LRP1 CR3-5 (human); experiment: solid-phase assay, coated CR protein (same value as Table 1)
T1 construct: range 852-973; also called L1 CR3-5; LRP1 CR3-S [sic]

LRP2 CR89 V1047D R1088D = biological target: T2, LRP2 CR89 V1047D R1088D (human, UniProt P98164 1022-1105); experiment: solid-phase assay, coated CR protein
T2 construct: also called YDWD; not shown: N-terminal hexahistidine and S-peptide tag stretch of pET30(+)a
T2 chain: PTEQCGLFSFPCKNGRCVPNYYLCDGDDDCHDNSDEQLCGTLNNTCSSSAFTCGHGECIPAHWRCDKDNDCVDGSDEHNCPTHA
Experimental: (§1) Wells were washed with TBSTC and bound ligands detected with polyclonal anti-RAP (BP41/42, 1:1,000, BioMarin). Excess primary antibody was removed and wells washed before incubation with the secondary antibody, HRP-conjugated goat anti rabbit IgG (Bio-Rad). After washing, TMB substrate solutions (Bio-Rad) were added to detect HRP. Color development was stopped with 1N HCl. Absorption at 450 nm was measured with a microplate spectrophotometer (Molecular Devices). Data were plotted and Kd values derived by non-linear regression with the assumption of single-site binding (GraphPad Prism).
(§2) One premise of this work was that amino acids at A, C, A′ and C′ within the calcium-binding loops of a CR pair were key determinants of binding affinity for RAP and would be similarly important for binding of RAP variants. To test this idea, mutant LRP2 CR89 were prepared in which the native, non-canonical residues at these positions were sequentially substituted with the non-native, canonical residues. As defined above, the A, C, A′, C′ string for LRP2 CR89 is YVWR. Mutants included LRP2 CR89Y1042W (WVWR), LRP2 CR89V1047D (YDWR), LRP2 CR89R1088D (YVWD), LRP2 CR89V1047D R1088D (YDWD), LRP2 CR89 Y1042W V1047D R1088D (WDWD), LRP2 CR89Y1042W V1047D (WDWR), LRP2 CR89Y1042W R1088D (WVWD). Binding to both RAP d3 and MegaRAP1 d3 were measured for each LRP2 CR89 mutant by solid-phase assay. […] The A′ position in LRP2 CR89 is a tryptophan, the canonical residue for wild-type RAP d3 binding, and was not mutated in our studies. […] We did see a small increase in binding of RAP d3 to the WVWD and WDWD combinations at A, C, A′ and C′.

LRP2 CR89 V1047D = biological target: T3, LRP2 CR89 V1047D (human, UniProt P98164 1022-1105); experiment: solid-phase assay, coated CR protein
T3 construct: also called YDWR; not shown: N-terminal hexahistidine and S-peptide tag stretch of pET30(+)a
T3 chain: T2 chain with D68R
Experimental: as §1, §2

LRP2 CR89 Y1042W R1088D = biological target: T4, LRP2 CR89 Y1042W R1088D (human, UniProt P98164 1022-1105); experiment: solid-phase assay, coated CR protein
T4 construct: also called WVWD; not shown: N-terminal hexahistidine and S-peptide tag stretch of pET30(+)a
T4 chain: T2 chain with Y22W, D27V
Experimental: as §1, §2

LRP1 CR3-5 [2] = biological target: T1, LRP1 CR3-5; experiment: solid-phase assay, coated CR protein (FIG. 4)
Experimental: Solid phase binding assays—Purified, refolded CR protein (1 μg) was bound to Nunc Maxisorp™ 96-well plates in TBS pH 8 supplemented with 5 mM CaCl₂ (TBSC) overnight at 4° C. Wells were washed with TBSC and then blocked with TBSC containing 2% bovine serum albumin (BSA). RAP ligands were then incubated with the immobilized receptor at a range of concentrations for 2 hours in the above blocking buffer supplemented with 0.05% Tween-20 at room temperature. Control wells contained no added ligand. As an additional control, to determine whether the absence of calcium affected binding, 10 mM EGTA was included in the incubation medium for some samples. Wells were washed with TBSTC and bound ligands detected with polyclonal anti-RAP (BP41/42, 1:1,000, BioMarin). Excess primary antibody was removed and wells washed before incubation with the secondary antibody, HRP-conjugated goat anti rabbit IgG (Bio-Rad). After washing, TMB substrate solutions (Bio-Rad) were added to detect HRP. Color development was stopped with 1N HCl. Absorption at 450 nm was measured with a microplate spectrophotometer (Molecular Devices). […]
The binding of wild-type RAP d3 to each CR pair or set of overlapping pairs was then measured by solid-phase assay (FIG. 4). […] Binding of RAP d3 to MAT CR12 and CR34, measured in a separate set of experiments, was also undetectable. […]

LRP1 CR3-5 [3] = biological target: T1, LRP1 CR3-5; experiment: solid-phase assay, coated CR protein
Experimental: as §1
Next, the binding of RAP d3 and MegaRAP1 d3 proteins to LRP1 CR3-5 and LRP2 CR89 was assessed. […] In all cases, 10 mM EGTA prevented binding of both RAP d3 and MegaRAP1 d3 to CR proteins. Since calcium was the only divalent metal ion present in the binding buffer, this observation is consistent with both RAP d3 and MegaRAP1 d3 binding to calcium-loaded CR pairs. […] Therefore, wild-type RAP d3 and MegaRAP1 d3 have inverted binding preferences for these two receptor fragments.

GFRα-1 [4] = biological target: T5, GFRα-1; experiment: solid phase assay, RAP-GDNF concentration varied, OD 450 nm
T5 construct: Bought reagent; construct not described; also called soluble GFRα-1

GFRα-1 [5] = biological target: T5, GFRα-1; experiment: solid-phase assay, coated RAP-GDNF, serial dilutions of GFRα-1 (FIG. 12)
Experimental: Solid-phase binding assays—Microtiter plates were coated with GDNF or RAP-GDNF in 50 mM sodium carbonate, pH 9.6. The plates were then blocked for 1 hour at room temperature with blocking buffer (Promega) and incubated with serial dilutions of GFRα-1 (0-10 nM) in the presence or the absence of 1 μM RET (2 hours, ambient temperature). Complexes were identified by probing with an anti-GDNF monoclonal antibody (B8, Santa Cruz Biotechriology) and then with anti-mouse […] (Bio-Rad). After adding TMB solution (Bio-Rad), the color development was stopped with HCl and the OD 450 nm was measured using a plate reader. Between steps, the plates were washed three times with DPBS containing 0.1% Tween 20. This method provides a method for quantitating the affinity of RAP-GDNF for GFRα.

T1 sequence (Q07954 852-973): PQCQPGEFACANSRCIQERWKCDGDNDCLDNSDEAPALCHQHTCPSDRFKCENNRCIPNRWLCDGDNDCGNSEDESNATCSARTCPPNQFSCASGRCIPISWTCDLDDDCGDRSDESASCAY

Kd (LRP1 CR3-5 [1]): 16 nM | % max bind (LRP2 CR89 V1047D R1088D): 6% | % max bind (LRP2 CR89 V1047D): 6% | % max bind (LRP2 CR89 Y1042W R1088D): 16% | Kd (LRP1 CR3-5 [2]): 11 nM | % max binding (LRP1 CR3-5 [3]): 76% | Kd (LRP1 CR3-5 [3]): 16 nM
B1: RAP d3 (wild-type third domain of the receptor-associated protein) (ligand, human, UniProt P30533 235-353, looked up)
chain: LDRLRRVSHQGYSTEAEFEEPRVIDLWDLAQSANLTDKELEAFREELKHFEAKIEKHNHYQKQLEIAHEKLRHAESVGDGERVSRSREKHALLEGRTKELGYTVKKHLQDLSGRISRAR
notes: range 201-319 (mature RAP numbering); Expressed in E. coli from pET30(+)a; also called wild-type RAP d3; not shown: N-terminal hexahistidine and S-peptide tags of pET30(+)a

EC50 (read off the curve) (GFRα-1 [4]): ~2 ng/mL | Kd (GFRα-1 [5]): ~5 ng/mL
B2: RAP-GDNF fusion protein (ligand, UniProt P30533 35-353, looked up)
chain: YSREKNQPKPSPKRESGEEFRMEKLNQLWEKAQRLHLPPVRLAELHADLKIQERDELAWKKLKLDGLDEDGEKEARLIRNLNVILAKYGLDGKKDARQVTSNSLSGTQEDGLDDPRLEKLWHKAKTSGKFSGEELDKLWREFLHHKEKVHEYNVLLETLSRTEEIHENVISPSDLSDIKGSVLHSRHTELKEKLRSINQGLDRLRRVSHQGYSTEAEFEEPRVIDLWDLAQSANLTDKELEAFREELKHFEAKIEKHNHYQKQLEIAHEKLRHAESVGDGERVSRSREKHALLEGRTKELGYTVKKHLQDLSGRISRARSPDKQMAVLPRRERNRQAAAANPENSRGKGRRGQRGKNRGCVLTAIHLNVTDLGLGYETKEELIFRYCSGSCDAAETTYDKILKNLSRNRRLVSDKVGQACCRPIAFDDDLSFLDDNLVYHILRKHSAKRCGCI
notes: Secreted from CHO cells as a disulfide-linked homodimer of about 120 kD
